From US20210395346A1 (SEOUL NATIONAL UNIVERSITY R AND DB FOUNDATION, published 2021)

How the values were obtained:
[1] = target: T1, SARS-CoV-2 RBD variant N501Y (UK) (SARS-CoV-2, UniProt P0DTC2 319-541); assay: ELISA (FIG. 18E)
T1 construct: domain: RBD

[2] = target: T2, SARS-CoV-2 RBD variant N439K (Europe) (SARS-CoV-2, UniProt P0DTC2 319-541); assay: ELISA (FIG. 18E)
T2 construct: domain: RBD

[3] = target: T3, SARS-CoV-2 RBD variant K417V, N439K (Europe) (SARS-CoV-2, UniProt P0DTC2 319-541); assay: ELISA (FIG. 18E)
T3 construct: domain: RBD

[4] = target: T4, SARS-CoV-2 RBD variant K417N, E484K, N501Y (South Africa) (SARS-CoV-2, UniProt P0DTC2 319-541); assay: ELISA (FIG. 18E)
T4 construct: domain: RBD

[5] = target: T5, SARS-CoV-2 RBD variant K417T, E484K, N501Y (Brazil) (SARS-CoV-2, UniProt P0DTC2 319-541); assay: ELISA (FIG. 18E)
T5 construct: domain: RBD

[6] = target: T6, SARS-CoV-2 RBD variant L452R (California) (SARS-CoV-2, UniProt P0DTC2 319-541); assay: ELISA (FIG. 18E)
T6 construct: domain: RBD

[7] = target: T7, SARS-CoV-2 RBD variant S477N (New York) (SARS-CoV-2, UniProt P0DTC2 319-541); assay: ELISA (FIG. 18E)
T7 construct: domain: RBD

[8] = target: T8, SARS-CoV-2 RBD variant E484K (New York) (SARS-CoV-2, UniProt P0DTC2 319-541); assay: ELISA (FIG. 18E)
T8 construct: domain: RBD

[9] = target: T9, SARS-CoV-2 RBD variant E484Q, L452R (India) (SARS-CoV-2, UniProt P0DTC2 319-541); assay: ELISA (FIG. 18E)
T9 construct: domain: RBD

[10] = target: T1, SARS-CoV-2 RBD variant N501Y (UK); assay: ELISA (FIG. 18A)
[11] = target: T2, SARS-CoV-2 RBD variant N439K (Europe); assay: ELISA (FIG. 18A)
[12] = target: T3, SARS-CoV-2 RBD variant K417V, N439K …; assay: ELISA (FIG. 18A)
[13] = target: T4, SARS-CoV-2 RBD variant K417N, E484K, …; assay: ELISA (FIG. 18A)
[14] = target: T5, SARS-CoV-2 RBD variant K417T, E484K, …; assay: ELISA (FIG. 18A)
[15] = target: T6, SARS-CoV-2 RBD variant L452R …; assay: ELISA (FIG. 18A)
[16] = target: T7, SARS-CoV-2 RBD variant S477N (New York); assay: ELISA (FIG. 18A)
[17] = target: T8, SARS-CoV-2 RBD variant E484K (New York); assay: ELISA (FIG. 18A)
[18] = target: T9, SARS-CoV-2 RBD variant E484Q, L452R …; assay: ELISA (FIG. 18A)
[19] = target: T1, SARS-CoV-2 RBD variant N501Y (UK); assay: ELISA (FIG. 18C)
[20] = target: T2, SARS-CoV-2 RBD variant N439K (Europe); assay: ELISA (FIG. 18C)
[21] = target: T3, SARS-CoV-2 RBD variant K417V, N439K …; assay: ELISA (FIG. 18C)
[22] = target: T4, SARS-CoV-2 RBD variant K417N, E484K, …; assay: ELISA (FIG. 18C)
[23] = target: T5, SARS-CoV-2 RBD variant K417T, E484K, …; assay: ELISA (FIG. 18C)
[24] = target: T6, SARS-CoV-2 RBD variant L452R …; assay: ELISA (FIG. 18C)
[25] = target: T7, SARS-CoV-2 RBD variant S477N (New York); assay: ELISA (FIG. 18C)
[26] = target: T8, SARS-CoV-2 RBD variant E484K (New York); assay: ELISA (FIG. 18C)
[27] = target: T9, SARS-CoV-2 RBD variant E484Q, L452R …; assay: ELISA (FIG. 18C)
[28] = target: T1, SARS-CoV-2 RBD variant N501Y (UK); assay: ELISA (FIG. 18B)
[29] = target: T2, SARS-CoV-2 RBD variant N439K (Europe); assay: ELISA (FIG. 18B)
[30] = target: T3, SARS-CoV-2 RBD variant K417V, N439K …; assay: ELISA (FIG. 18B)
[31] = target: T4, SARS-CoV-2 RBD variant K417N, E484K, …; assay: ELISA (FIG. 18B)
[32] = target: T5, SARS-CoV-2 RBD variant K417T, E484K, …; assay: ELISA (FIG. 18B)
[33] = target: T6, SARS-CoV-2 RBD variant L452R …; assay: ELISA (FIG. 18B)
[34] = target: T7, SARS-CoV-2 RBD variant S477N (New York); assay: ELISA (FIG. 18B)
[35] = target: T8, SARS-CoV-2 RBD variant E484K (New York); assay: ELISA (FIG. 18B)
[36] = target: T9, SARS-CoV-2 RBD variant E484Q, L452R …; assay: ELISA (FIG. 18B)

Measured: binding result

B1: E-3G9 antibody (format in FIG. 18 not stated) (antibody, V domains shown)
VH: QMQLVQSGAEVKKPGASVKVSCKASGHTITSYYMHWVRQAPGQGLEWMGIINPSGGSTSYAQKFQGRVTMTRDTSTSTVYMELSSLRSEDTAVYYCAREGVWDSSGYSSFDYWGQGTLVTVSS
VL: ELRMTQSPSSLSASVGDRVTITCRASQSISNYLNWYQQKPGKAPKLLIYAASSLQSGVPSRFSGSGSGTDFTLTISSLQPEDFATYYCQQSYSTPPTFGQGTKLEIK
binds: [1] | [2] | [3] | [4] | [5] | [6] | [7] | [8] | [9]

B2: A-1H4 antibody (format in FIG. 18 not stated) (antibody, V domains shown)
VH: EVQLVESGGGLVQPGRSLRLSCAASGFTVSSNYMSWVRQAPGKGLEWVSGIYSGGSTYYADSVKGRFTISRDNSKNTLYLQMNSLRAEDTAVYYCARDLQEAGAFDIWGQGTMVTVSS
VL: ELQLTQSPSFLSASVGDRVTITCRASQGISSYLAWYQQKPGKAPKLLIYAASTLQSGVPSRFSGSGSGTEFTLTISSLQPEDFATYYCQQLNSYPRLTFGGGTKVEIK
binds: [10] | [11] | [12] | [13] | [14] | [15] | [16] | [17] | [18]

B3: A-2H4 antibody (format in FIG. 18 not stated) (antibody, V domains shown)
VH: QMQLVESGGGLVQPGRSLRLSCAASGFTFSVYGMHWVRQAPGKGLEWVAVISYDGSNKYYADSVKGRFSISRDNSKNTLYLQMNSLRGEDTAVYYCAKGGPRPVVKAYGELDYYGMDVWGQGTTVTVSS
VL: ELALTQPASVSGSPGQSITISCTGTSSDIGGYEYVSWYQQHPGKAPKLIIYDVRDRPSGISNRFSGSKSGNTASLIISSLQAGDEADYYCFSYTSSGTYVFGSATKVTVL
binds: [19] | [20] | [21] | [22] | [23] | [24] | [25] | [26] | [27]

B4: A-2F1 antibody (format in FIG. 18 not stated) (antibody, V domains shown)
VH: QVQLVQSGGGLIQPGGSLRLSCAASGVTVSSNYMSWVRQAPGKGLEWVSVIYSGGSTFYADSVKGRFTISRDNSKNTLYLQMNSLRAEDTAVYYCARDLMEAGGMDVWGQGSTVTVSS
VL: ELALTQPPSASGSPGQSVTISCTASSSDIGASNHVAWYQQNPGKAPKLMIYGVSGRPSGVPDRFSGSKSGNTASLTVSGLQAEDEADYYCSSYAGSNILIFGGGTKLTVL
binds: [28] | [29] | [30] | [31] | [32] | [33] | [34] | [35] | [36]
